In the nanobody polyreactivity screen of Harvey et al. (2022):

Test: yeast display, Sf9 membrane polyspecificity reagent, FACS + sequencing; frameworks hold sequencing errors
Procedure, shortened: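 Sorting gates, low and high (top ~1%), were placed on anti-HA fluorescence to track expression and on streptavidin fluorescence to track reagent binding. A clone's polyreactivity label is taken from the gate it came out of. The reagent was 10% biotinylated, detergent-solubilized Sf9 membrane, applied for 1 hour at 4 °C to galactose-induced yeast display cells.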

Sequence | polyreactivity (PSR sort gate)
QVQLVESGGGLVQAGGSLRLSCAASGFILGSNAMGWYRQAPGKERELVAAISRSGGSTYYADSVKGRFTISRDNAKNTVYLQMNSLKPEDTAVYYCNRVASVRARDYDYWGQGTQVTVSS | high polyreactivity
QVQLVESGGGLVQAGGSLRLSCAASGFILGSNVMGWYRQAPGKERELVAAISYSGGSTYYADSVKGRFTISRDNAKNTVYLQMNSLKPEDTAVYYCARRLTREYDYWGQGSQVTVSS | low polyreactivity
QVQLVESGGGLVQAGGSLRLSCAASGFILGYYAMGWYRQAPGKERELVAAISWNGGRTYYADSVKGRFTISRDNAKNTVYLQMNSLKPEDTAVYYCAVVATVIPWPYDYWGQGTQVTVSS | high polyreactivity
QVQLVESGGGLVQAGGSLRLSCAASGFILIQYAMGWYRQAPGKERELVAAITWSDTSTNYADSVKGRFTISRDNAKNTVYLQMNSLKPEDTAVYYCAAYPVRYYNQYDYWGQGTQVTVSS | low polyreactivity
QVQLVESGGGLVQAGGSLRLSCAASGFILPHYTMGWYRQAPGKERELVAAITSGVSTYYADSVKGRFTISRDNAKNTVYLQMNSLKPEDTAVYYCNALATYIGYKYDYWGQGTQVTVSS | low polyreactivity
QVQLVESGGGLVQAGGSLRLSCAASGFILPIYAMGWYRQAPGKEREFVAAITWTGGSTYYADSVKGRFTISRDNANNTVYLQMNSLKPEDTAVYYCNAEGRSYYYIIYDFWGQGTQVTVSS | high polyreactivity
QVQLVESGGGLVQAGGSLRLSCAASGFILPNYAMGWYRQAPGKERELVAASTYIGGSTYYADSVKGRFTISRDNAKHTVYLQMNSLKPEDTAVYYCAKYWLGYTKYDYWGQGTQVTVSS | low polyreactivity
QVQLVESGGGLVQAGGSLRLSCAASGFILPNYAMGWYRQATGKERELVDAITYIGGSTYYADSVKGRFTISRDNAKNTVYLHMNSLKPEDTAVYYCAKYWLGYTKFDYWGQGTQVTVSS | low polyreactivity
QVQLVESGGGLVQAGGSLRLSCAASGFILPVYAMGWYRQAPGTERELVAAISSGGSTNYADSVKGRFTISRDNAKNTVYLQMNSLKPEDTEVYYCNKVDWYFGGYKYDYWGQGTQVTVSS | low polyreactivity
QVQLVESGGGLVQAGGSLRLSCAASGFILRAYAIGWYRQAPGKERELVAAITSATSTNYADSVKGRFTISRDNAKNTVYLQMNSLKPEDTAVYYCAADGGGGEFSYDSWGQGTQVTVSS | low polyreactivity
QVQLVESGGGLVQAGGSLRLSCAASGFILRYNAMGWYRQAPGKEREFVAAITRGATTTYADSVKGRFTISRDNAKNTVYLQMNRLKPEDTAVYYCAKRYHGYISQGQLWERIYDYWGQGTQVTVSS | low polyreactivity
QVQLVESGGGLVQAGGSLRLSCAASGFILSHYVMGWYRPAPGKERELVATIRNVGSTKYADSVKGRFTISRDNAKNTVYLQMNSLKPEDTAVYYCNARRWEGYYEFNYWGQGTQVTVSS | low polyreactivity
QVQLVESGGGLVQAGGSLRLSCAASGFILYDNTMGWYRQAPGKEREFVAAIRDSGGSTYYADSVKGRFTISRDNAKNTVYLQMNSLKPEDTAVYYCNTYGSGTHSTGYDYWGQGTQVTVSS | low polyreactivity
QVQLVESGGGLVQAGGSLRLSCAASGFILYGNTMGWYRQAPGKERELVAAISWSGGNTRYADSVKARFTISRDNAKNTVYLQMNSLQPEDTAVYYCAAYSNYVWSIRRDYWGQGTQVTVSS | low polyreactivity
QVQLVESGGGLVQAGGSLRLSCAASGFILYRNAMGWYRQAPGKERELVAAISRNGGSTYYADSVKGRFTISRDNAKNTFYLQMNSLKPEDTAVYYCAARTVGRKAGFDYWGQGTQVTVSS | high polyreactivity
QVQLVESGGGLVQAGGSLRLSCAASGFILYYYAMGWYRQAPGKERELVASISRRGGSTYYADSVKGRFTISRDNAKHTVYLQMNSLKPEDTAVYYCNAYSTYIKYDYWGHGTQVTVSS | high polyreactivity
QVQLVESGGGLVQAGGSLRLSCAASGFIQPYNTMGWYRQAPGKEREFVAAINYSGGRTYYADSVKGRFTISRDNAKNTVYLQMNRLKPEDTAVYYCAAARYPYRYKYNYWGQGTQVTVSS | high polyreactivity
QVQLVESGGGLVQAGGSLRLSCAASGFISARYAMGWYRQAPGKERELVAGISGGGGRTYYADSVKGRFTISRDNAKNTVYLQMNSLKPEDTAVYYCASTQQSRDRRFNYWGQGTQVTVSS | high polyreactivity
QVQLVESGGGLVQAGGSLRLSCAASGFISFGNGMGWYRQAPGKERELVAAITRRGGSTYYADSVKGLFTISRDNAKNTVYLQMNSLKPEDTAVYYCDARYLGSTSTNRPPMDYWGQGTQVTVSS | high polyreactivity
QVQLVESGGGLVQAGGSLRLSCAASGFISGGNAMGWYRQAPGKEREFVAAIDNTGSTYYADSVKGRFTISRDNAKNTVYLQMNSLKPEDTAVYYCNAEVSEDYVDNDYWGQGTQVTVSS | low polyreactivity
QVQLVESGGGLVQAGGSLRLSCAASGFISGSYAMGWYRQAPGKDREFVASISLSDGSTTYADSVKGRFTISRDTAKNPVYLQMNSLKPEDTAVYYCAVQFYYPFTGGTIYEYWGQGTQVTVAS | low polyreactivity

Sequence | polyreactivity (PSR sort gate)
QVQLVESGGGLVQAGGSLRLSCAASGFISPSYAMGWYRQAPGKERELVAAIRSSDGSTYYADSVKGRFTISRDNAKNTVYLQMNSLKPEDTAVYYCAAGGSYYRDDYWGQGTQVTVSS | low polyreactivity
QVQLVESGGGLVQAGGSLRLSCAASGFISQFYAMGWYRQAPGKERELVAAINWRGDSTYYADSVKGRFTISRDNAKNTVYLQMNSLKPEVTAVYYCAAENWSGYDYWGQGTQVTVSS | high polyreactivity
QVQLVESGGGLVQAGGSLRLSCAASGFISRYAMGLYRQAPGKERELVAAINRSGGRTYYADSVKGRFTISRDNAKNTVYLQMNSLKPEDTAVYYCAAERSSSYTYDFWGQGTQVTVSS | high polyreactivity
QVQLVESGGGLVQAGGSLRLSCAASGFISVRNAMGWYRQAPGKERELVAAISSGDTTDYADSVKGRFTISRDNAKNTVSLQMNSLKAEDTAVYYCAAVYYGRYYYWGQGTQVTVSS | low polyreactivity
QVQLVESGGGLVQAGGSLRLSCAASGFISYTYMGWYRQAPGKERELVAGITGSGGSTYYADSVKGRFTISRDNAKNTVYLQMNSLKPEDTAVYYCAAERPRRSPDGLNYWGQGTQVTVSS | high polyreactivity
QVQLVESGGGLVQAGGSLRLSCAASGFIVASNAMGGDRQAPGKVRELLAAINSSAGSTYYADSVKGRFTISRDNAKNTVYLQMNSQKPEDTAVYYCNRDDGSVYRRHRRPYYYWGQRTQVTVSS | low polyreactivity
QVQLVESGGGLVQAGGSLRLSCAASGFIVYTYAMGWYRPAPGKERELVAAISIGGRTNYADSVKGRFTISRDNAKNTVSLQMNSLKPEDTARYYCAARGYKRIGYWGQGTLVTVSS | high polyreactivity
QVQLVESGGGLVQAGGSLRLSCAASGFIYGRNAMGWYRQAPGKERELVAAINWRGGSTYYADSVKGRFTISRDNAKNTVYLQMNSLKAEDTAVYYCAARAPYRYGYDYWGQGTQVTLSS | high polyreactivity
QVQLVESGGGLVQAGGSLRLSCAASGFIYSKYAMRWYRQAPGKERELVAAITFSGGSTYYADSVKGRFTISRDNAKKTVYLQMNSLKPEDTAVYYCNAEGSYPDVSPVLGYDYWGQGTQVTVSS | low polyreactivity
QVQLVESGGGLVQAGGSLRLSCAASGFNCATNYMGWYRQAPGKERELVAAITKGGGRTYYADSVKGRFTISRDNAKNTVYLQMNSLKPEDTAVYYCAARQLIKYDYWGQGTQVTVSS | low polyreactivity
QVQLVESGGGLVQAGGSLRLSCAASGFNFAIYAMGWYRQAPGKERELVAAISSSGGSTYYADSVKGRFTISRDNAKNTVYLQMNSLKPEDTAVYYCNADWSLYWLDYWGQGTQVTVSS | high polyreactivity
QVQLVESGGGLVQAGGSLRLSCAASGFNFASNAMGWYRQAPGKERELVAAITKSGGRTYYADSVKGRFTISRDNAMNTVYLQMNSLKPEDTAVYYCAAKVRVVHRPYDHWGQGTQVTVSS | high polyreactivity
QVQLVESGGGLVQAGGSLRLSCAASGFNFDGYAMGWYRQAPGKERELVAAITYSGGSTYYADSVKGRFTISRDNAKNTVYLQMNSLKPEDTAVYYCAAESYVYGGSDYDYWGQGTQVTVSS | low polyreactivity
QVQLVESGGGLVQAGGSLRLSCAASGFNFDWYAMGWYRQAPGKERELVAAISASGGRTYYADSVKGRFTISRDNAKNTVYLQMNSLKPEDTAVYYCNKYYLVKGPYDWGQGTQVTVSS | high polyreactivity
QVQLVESGGGLVQAGGSLRLSCAASGFNFGGYPMGWYRQAPGKERELVADISKRGGSTFYADSVKGRFTISRDNAKNTVYLQMNSLKPEDTAVYYCATRFFYPYWGVYEYYYWGQGTQVTVSS | high polyreactivity
QVQLVESGGGLVQAGGSLRLSCAASGFNFKHYAMGWYRQAPGKERELVATITRGGSTNYADSVKGRFTISRDNAKNTVYLQMNSLKPEDTAVYYCAASDYVRYPFTRGYIYQGSDYWGQGTQVTVSS | low polyreactivity
QVQLVESGGGLVQAGGSLRLSCAASGFNFNNNGMGWYRQAPGKERELDAAISYSGGRTYYADSVKGRFTISRDNAKNTLYLQMNSLKPEETAVYYFADNSYYSRYDYWGQGTQVTVSS | low polyreactivity
QVQLVESGGGLVQAGGSLRLSCAASGFNFPGNAIGWYTPAPGKERELVATISSGGSTKYADSVKGRFTISRDNAKNTVYLQMNSLKPEDTAVYYFAARVYLGVFDYYYWGQGTQVTVSS | low polyreactivity
QVQLVESGGGLVQAGGSLRLSCAASGFNFPHYAMGWYIQAPGKERELVAAISWSGTRTYYADSVKGRFTISRDNAKNTVYLQMNSLKPEDTAVYYCNADSITEGNSRYSHFDYWGQGTQVTVSS | low polyreactivity
QVQLVESGGGLVQAGGSLRLSCAASGFNFRWYAMGWYRQAPGKESEFVAAITWRGGRTYYADSVKGRFTISRDNAKNTVYLQMNSLKPEDTAVYYCNAVYQYWHYSEGNYWGQGTQVTVSS | low polyreactivity
